Source: patent publication US20060286112A1 (published 2006)

Experiments:
[1] = molecular target: T1, human VLA-1 α1 subunit (CD49a), full-length, on transfected CHO cells (human, UniProt P56199 29-1179); assay: FACS on CHO-α1 cells
T1 construct: whole, on cells; also called CHO-α1; CHO-VLA-1

[2] = molecular target: T2, human VLA-1 (alpha 1/beta 1, CD49a/CD29) on IL-2 stimulated human PBMC / T cells (human, UniProt P56199 29-1179; P05556 21-798); assay: cell-based or functional assay
[3] = molecular target: T2, human VLA-1 (alpha 1/beta 1, …); assay: cell-based or functional assay; remark: listed apart in the source
[4] = molecular target: T2, human VLA-1 (alpha 1/beta 1, …); assay: cell-based or functional assay; remark: listed apart in the source
[5] = molecular target: T3, mouse VLA-1 on mouse splenocytes (mouse, UniProt Q3V3R4 29-1179; P09055 21-798); assay: FACS on mouse splenocytes
T3 construct: whole, on cells; native protein on primary cells

[6] = molecular target: T2, human VLA-1 (alpha 1/beta 1, …); assay: FACS on IL-2 stimulated human PBMC
[7] = molecular target: T1, human VLA-1 α1 subunit (CD49a), …; assay: cell-based or functional assay
[8] = molecular target: T2, human VLA-1 (alpha 1/beta 1, …); assay: cell-based or functional assay; remark: listed apart in the source
[9] = molecular target: T1, human VLA-1 α1 subunit (CD49a), …; assay: cell-based or functional assay; remark: listed apart in the source
[10] = molecular target: T4, human CD49a I domain I11F (human, UniProt P56199 151-364, I11F); assay: ELISA on secreted mutant I domain
T4 construct: domain: I domain; not shown: myc and His tags

[11] = molecular target: T5, human CD49a I domain E48K (human, UniProt P56199 151-364, E48K); assay: ELISA on secreted mutant I domain
T5 construct: domain: I domain; not shown: myc and His tags

[12] = molecular target: T6, human CD49a I domain E66A (human, UniProt P56199 151-364, E66A); assay: ELISA on secreted mutant I domain
T6 construct: domain: I domain; not shown: myc and His tags

[13] = molecular target: T7, human CD49a I domain K88N (human, UniProt P56199 151-364, K88N); assay: ELISA on secreted mutant I domain
T7 construct: domain: I domain; not shown: myc and His tags

[14] = molecular target: T8, human CD49a I domain with residues 91-96 VQRGGR replaced by mouse GRRGGL (human, UniProt P56199 151-364, V91G; Q92R; R96L); assay: ELISA on secreted mutant I domain
T8 construct: domain: I domain; also called V91G, Q92R, R96L; not shown: myc and His tags

[15] = molecular target: T9, human CD49a I domain K142Q (human, UniProt P56199 151-364, K142Q); assay: ELISA on secreted mutant I domain
T9 construct: domain: I domain; text prints KI42Q once; not shown: myc and His tags

[16] = molecular target: T10, human CD49a I domain S162H (human, UniProt P56199 151-364, S162H); assay: ELISA on secreted mutant I domain
T10 construct: domain: I domain; not shown: myc and His tags

[17] = molecular target: T11, human CD49a I domain T204A (human, UniProt P56199 151-364, T204A); assay: ELISA on secreted mutant I domain
T11 construct: domain: I domain; not shown: myc and His tags

B1: 7.38 (antibody, V domains shown)
VH: QVQLQESGPGLVKPSETLSLTCTVSGGSFSSYYWSWIRQPAGKGLEWIGRIYTSGSTYYNPSLKSRVTMSVDTSKNQFSLKLNSVTAADTAVYYCAREGYDFWNDYYNYYYGMDVWGQGTTVTVS
VL: EIVLTQSPGTLSLSPGERATLSCRASQSVSSRYLAWYQQKPGQAPRLLIYGASSRATGIPDRFSGSGSGTDFTLTISRLEPEDFAVYYCQQYGSAFTFGGGTKVEIK
notes: human IgG2 or IgG4
- binding result [1]: binds

B2: 1.7 (antibody, V domains shown)
VH: QVQLQESGPGLVKPSQTLSLTCTVSGGSISRGNYYWSWIRQHPGKGLEWIGYIFYSGSTYYNPSLKSRVTISVDTSKNQFSLKLSSVTAADTAVYYCARDGYGMDVWGQGTTVTVSS
VL: EIVLTQSPGTLSLSPGERATLSCRASQSVSSSYLVWYQQKPGQAPRLLLYDASSRATGIPDRFSGSGSGTDFTLTISRLEPEDFAVYYCQQYGNSPLTFGGGTKVEIK
notes: human IgG2 or IgG4; also called antibody 1.7
- % adhesion of IL-2 activated T cells to collagen IV vs no antibody, 10 µg/ml, +PMA [2]: 33.8%
- % adhesion of IL-2 activated T cells to collagen IV vs no antibody, 10 µg/ml, -PMA [2]: 57%
- % adhesion of T cells to collagen IV vs no antibody, 0.5 nM mAb, no PMA [3]: 36.9%
- % adhesion of T cells to collagen IV vs no antibody, 0.5 nM mAb, 10 ng/ml PMA [4]: 74.5%
- % adhesion of T cells to collagen IV vs no antibody, 5 nM mAb, 10 ng/ml PMA [4]: 44.1%
- binding result [5]: binds

B3: 3.2 (antibody, V domains shown)
VH: QVQLVESGGGVVQPGRSLRLSCAASGFTFSSYGIHWVRQAPGKGLEWVAVIWYDGSDIYYADSVKGRFTISRDNSKNTLYLQMNSLRAEDTALYYCARESSGWTFDYWGQGTLVTVSS
VL: QSALTQPASVSGSPGQSITISCTGTSSDVGGYNYVSWYQQHPGKAPKLMIYEVSNRPSGISNRFSGSKSGNTASLTISGLQAEDEADYYCSSYTSSSTIIFGGGTKLTVL
notes: human IgG2 or IgG4
- binding result [6]: binds

B4: 3.9 (antibody, V domains shown)
VH: QVQLVESGGGVVQPGRSLRLSCAASGFTFSSYGMHWVRQAPGKGLEWVAVIWYDGSNKYYADSVKGRFTISRDNSKNTLYLQMNSLRAEDTAVYYCARDNGAMVRGVIISYYYGMDVWGQGTTVTVSS
VL: SYDLTQPSSVSVSPGQTASIACSGDRLGNKYACWYQQKPGQSPVLVIYKDSKRPSGIPERFSGSNSGNTATLTISGTQAMDEADYYCQAWDSSTVVFGGGTKLTVL
notes: human IgG2 or IgG4
- relative inhibition at an optimal concentration, CHO-VLA-1 adhesion to collagen IV [7]: > 80%
- T cell adhesion to immobilized collagen IV, relative estimated IC50 [8]: > 5 nM
- IC50, adhesion of CHO-VLA-1 cells to collagen IV [9]: 0.38 nM
- % adhesion of IL-2 activated T cells to collagen IV vs no antibody, 10 µg/ml, +PMA [2]: 24.6%
- % adhesion of IL-2 activated T cells to collagen IV vs no antibody, 10 µg/ml, -PMA [2]: 45.8%
- % adhesion of T cells to collagen IV vs no antibody, 0.5 nM mAb, no PMA [3]: 91.5%
- % adhesion of T cells to collagen IV vs no antibody, 5 nM mAb, no PMA [3]: 68%
- % adhesion of T cells to collagen IV vs no antibody, 0.5 nM mAb, 10 ng/ml PMA [4]: 91.9%
- % adhesion of T cells to collagen IV vs no antibody, 5 nM mAb, 10 ng/ml PMA [4]: 99.6%
- binding result [10]: binds
- binding result [11]: no binding
- binding result [12]: binds
- binding result [13]: binds
- binding result [14]: binds
- binding result [15]: binds
- binding result [16]: binds
- binding result [17]: binds
